We go through 5 substances from article PMC8892012.

The target in the test is arrestin-3 fused to Renilla luciferase (UniProt P32121). Put plainly: BRET arrestin-3 interaction assay. As to conditions: maximal zaprinast-stimulated BRET; receptor-eYFP co-transfected with arrestin-3-Renilla luciferase; n = 3, ± SD; parent: est. 100; read off a plot.
Chain of UniProt P32121 (P32121 whole entry, the tested form may be a part): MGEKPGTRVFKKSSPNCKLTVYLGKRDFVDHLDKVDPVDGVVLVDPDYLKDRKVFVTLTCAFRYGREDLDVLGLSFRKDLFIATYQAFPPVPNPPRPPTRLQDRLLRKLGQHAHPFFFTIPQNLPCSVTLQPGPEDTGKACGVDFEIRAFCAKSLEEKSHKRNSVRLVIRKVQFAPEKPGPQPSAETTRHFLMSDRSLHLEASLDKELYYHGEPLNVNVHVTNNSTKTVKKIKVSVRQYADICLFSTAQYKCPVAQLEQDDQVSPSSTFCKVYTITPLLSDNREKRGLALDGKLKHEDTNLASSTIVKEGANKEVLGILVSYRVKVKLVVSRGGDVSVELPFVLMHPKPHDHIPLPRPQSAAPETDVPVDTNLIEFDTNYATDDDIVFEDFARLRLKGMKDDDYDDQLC
In the case of rGPR35-eYFP S302A; S304A; T306A, the percent of parent (% WT response) turned out to be 33.

Regarding rGPR35-eYFP S297A; T300A, the percent of parent (% WT response) turned out to be 10.

Regarding rGPR35-eYFP S286A, the percent of parent (% WT response) came out at 125.

For “rGPR35-eYFP S286A; T290A; S291A; S292A; T293A; S297A; T300A; S302A; S304A; T306A”, the percent of parent (% WT response) is 7.

As for rGPR35-eYFP T290A; S291A; S292A; T293A, the percent of parent (% WT response) was 83.
